From the supplement of paper PMC9112550, “Optimization of the antimicrobial peptide Bac7 by deep mutational scanning” (BMC Biology, 2022) come the findings set out here.
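Note: peptides expressed intracellularly from a pBAD plasmid library in pooled LB shake-flask culture, induced with 0.3% L-arabinose, DNA abundance read by NGS, three biological replicates, DESeq2 with apeglm shrinkage.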

The subject of this series is Escherichia coli TOP10. Description: shrunken log2 fold change of peptide-encoding DNA abundance (4.5 h post-induction vs induction); higher = less antimicrobial activity (less host growth inhibition). As to conditions: time post-induction: 4.5 h; library: site-saturation at positions 5, 18, 19, 20.
As for RRIRGRPPRLPRPRPRPNIKPRP, the “shrunken log2 fold change” value came to 0.136. The same measure for RRIRWRPPRLPRPRPRPTCEPRP: 0.752; for RRIRQRPPRLPRPRPRPHYMPRP: -0.474; for RRIRKRPPRLPRPRPRPIKRPRP: 0.0734. The same measure for RRIRCRPPRLPRPRPRPCFWPRP: 0.216.

With RRIRVRPPRLPRPRPRPDKGPRP, the “shrunken log2 fold change” value is -0.591.

Consider RRIRCRPPRLPRPRPRPQYWPRP, for which the “shrunken log2 fold change” value is -0.312. In the case of RRIRDRPPRLPRPRPRPPEAPRP, the “shrunken log2 fold change” value was 0.479. The same measure for RRIRWRPPRLPRPRPRPICYPRP: -0.214; for RRIRGRPPRLPRPRPRPMCDPRP: 1.07.

Take RRIRKRPPRLPRPRPRPMWPPRP: the “shrunken log2 fold change” value was -0.00167. With RRIRKRPPRLPRPRPRPDPSPRP the figure was -0.0338; with RRIRHRPPRLPRPRPRPCIIPRP, -0.0445. With RRIRGRPPRLPRPRPRPSGMPRP the figure was 0.48; with RRIRRRPPRLPRPRPRPTEHPRP, 0.0963.

For RRIRRRPPRLPRPRPRPGWTPRP, the “shrunken log2 fold change” value was found to be 0.326.

Consider RRIRDRPPRLPRPRPRPNPYPRP, for which the “shrunken log2 fold change” value is -0.558. The same measure for RRIRARPPRLPRPRPRPIWLPRP: 0.221; for RRIRNRPPRLPRPRPRPGEVPRP: -0.121; for RRIRTRPPRLPRPRPRPPPCPRP: 0.292. With RRIRGRPPRLPRPRPRPPWGPRP the figure was 0.651. On to RRIRLRPPRLPRPRPRPSFMPRP, for which the “shrunken log2 fold change” value was -0.309. As for RRIRFRPPRLPRPRPRPYANPRP, the “shrunken log2 fold change” value was -1.28.

As to RRIRTRPPRLPRPRPRPVYTPRP, the “shrunken log2 fold change” value was -1.09.

As for RRIRTRPPRLPRPRPRPNKWPRP, the “shrunken log2 fold change” value came out at 0.0213. The same measure for RRIRVRPPRLPRPRPRPPRFPRP: 0.577; for RRIRKRPPRLPRPRPRPTNTPRP: 1.79; for RRIRKRPPRLPRPRPRPMQTPRP: 0.753. With RRIRDRPPRLPRPRPRPQGSPRP the figure was -0.0152; with RRIRPRPPRLPRPRPRPKCYPRP, -0.193; with RRIRNRPPRLPRPRPRPFKMPRP, -0.258. The same measure for RRIRERPPRLPRPRPRPKFRPRP: -0.315; for RRIRVRPPRLPRPRPRPWMAPRP: -0.338; for RRIRVRPPRLPRPRPRPMQRPRP: -0.0413. In the case of RRIRTRPPRLPRPRPRPLSTPRP, the “shrunken log2 fold change” value was -0.386. With RRIRFRPPRLPRPRPRPIHIPRP the figure was -0.022; with RRIRHRPPRLPRPRPRPNPTPRP, -0.193; with RRIRGRPPRLPRPRPRPQNAPRP, 0.00487. The same measure for RRIRNRPPRLPRPRPRPGYMPRP: -0.281.

For RRIRKRPPRLPRPRPRPHNQPRP, the “shrunken log2 fold change” value was found to be 0.0277.

Regarding RRIRVRPPRLPRPRPRPWPTPRP, the “shrunken log2 fold change” value turned out to be 0.266. With RRIRARPPRLPRPRPRPPIAPRP the figure was 0.534. Consider RRIRFRPPRLPRPRPRPYAYPRP, for which the “shrunken log2 fold change” value was -0.0128. Regarding RRIRFRPPRLPRPRPRPLTQPRP, the “shrunken log2 fold change” value was -0.155. With RRIRNRPPRLPRPRPRPHQGPRP the figure was -0.0861; with RRIRTRPPRLPRPRPRPNYRPRP, -0.0168; with RRIRDRPPRLPRPRPRPRNKPRP, -0.014.

For the sequence RRIRWRPPRLPRPRPRPMVEPRP, the “shrunken log2 fold change” value stood at 0.35. RRIRTRPPRLPRPRPRPACCPRP: the “shrunken log2 fold change” value was 0.263.

As to RRIRHRPPRLPRPRPRPVCQPRP, the “shrunken log2 fold change” value is -0.147.

Take RRIRNRPPRLPRPRPRPPYRPRP: the “shrunken log2 fold change” value was -0.11. Take RRIRSRPPRLPRPRPRPILLPRP: the “shrunken log2 fold change” value is -0.334. In the case of RRIRHRPPRLPRPRPRPSTNPRP, the “shrunken log2 fold change” value was -0.275. As to RRIRARPPRLPRPRPRPVVNPRP, the “shrunken log2 fold change” value stood at 0.346.

Consider RRIRQRPPRLPRPRPRPTSTPRP, for which the “shrunken log2 fold change” value is -0.0784.

Take RRIRTRPPRLPRPRPRPSVPPRP: the “shrunken log2 fold change” value is -0.0459.

Take RRIRKRPPRLPRPRPRPAQEPRP: the “shrunken log2 fold change” value is 0.371.

Consider RRIRPRPPRLPRPRPRPLDDPRP, for which the “shrunken log2 fold change” value is 0.0437.

Regarding RRIRGRPPRLPRPRPRPAFQPRP, the “shrunken log2 fold change” value amounted to 0.202. On to RRIRTRPPRLPRPRPRPTCGPRP, for which the “shrunken log2 fold change” value is -0.0204. With RRIRGRPPRLPRPRPRPGIEPRP the figure was 0.118; with RRIRIRPPRLPRPRPRPSDTPRP, 0.00546; with RRIRQRPPRLPRPRPRPPIWPRP, 0.113.
